In assay [1] the target is T1, FcRL2, overexpressed on 3T3 cells (UniProt Q96LA5 20-508, limits assumed).
T1 construct: whole, on cells
T1 sequence (looked up): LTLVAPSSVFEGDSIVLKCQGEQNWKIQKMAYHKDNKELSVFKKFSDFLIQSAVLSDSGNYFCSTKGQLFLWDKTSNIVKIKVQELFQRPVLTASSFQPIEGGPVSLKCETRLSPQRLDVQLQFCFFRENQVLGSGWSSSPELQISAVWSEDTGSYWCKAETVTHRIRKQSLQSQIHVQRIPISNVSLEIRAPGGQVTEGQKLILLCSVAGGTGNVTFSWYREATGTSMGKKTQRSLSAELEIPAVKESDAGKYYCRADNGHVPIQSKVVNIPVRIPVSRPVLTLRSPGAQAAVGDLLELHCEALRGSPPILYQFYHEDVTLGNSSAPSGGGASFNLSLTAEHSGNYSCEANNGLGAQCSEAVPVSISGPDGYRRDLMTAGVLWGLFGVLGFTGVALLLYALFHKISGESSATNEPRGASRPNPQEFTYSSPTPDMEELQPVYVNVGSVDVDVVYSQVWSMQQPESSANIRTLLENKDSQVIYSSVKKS
Nature of the assay: phage clone on 3T3-FcRL2 cells.

The target in assay [2] is T2, FcRL3, overexpressed on 3T3 cells (UniProt Q96P31 18-734, limits assumed).
T2 construct: whole, on cells
T2 sequence (looked up): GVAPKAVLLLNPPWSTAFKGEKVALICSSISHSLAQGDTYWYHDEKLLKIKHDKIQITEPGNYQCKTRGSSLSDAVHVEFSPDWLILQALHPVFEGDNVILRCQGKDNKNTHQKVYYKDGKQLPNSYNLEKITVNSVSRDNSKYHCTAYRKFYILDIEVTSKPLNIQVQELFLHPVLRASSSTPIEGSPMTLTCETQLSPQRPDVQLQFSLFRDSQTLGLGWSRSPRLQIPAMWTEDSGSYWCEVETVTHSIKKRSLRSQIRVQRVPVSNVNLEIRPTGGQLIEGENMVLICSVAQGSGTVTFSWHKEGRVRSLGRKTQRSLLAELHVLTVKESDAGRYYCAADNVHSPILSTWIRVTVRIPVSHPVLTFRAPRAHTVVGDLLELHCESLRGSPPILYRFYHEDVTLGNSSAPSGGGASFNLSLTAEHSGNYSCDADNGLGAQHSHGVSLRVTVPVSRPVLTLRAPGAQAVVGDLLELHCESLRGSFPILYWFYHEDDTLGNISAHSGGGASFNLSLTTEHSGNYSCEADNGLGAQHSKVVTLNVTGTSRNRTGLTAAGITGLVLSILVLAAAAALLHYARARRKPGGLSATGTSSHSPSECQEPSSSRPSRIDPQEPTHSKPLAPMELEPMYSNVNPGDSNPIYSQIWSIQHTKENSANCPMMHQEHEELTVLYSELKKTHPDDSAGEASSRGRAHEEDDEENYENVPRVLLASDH
In words: phage clone on 3T3-FcRL3 cells.

Assay [3] addresses T3, Fc Receptor-like 5 (FcRL5), full length, overexpressed on 3T3 or Raji cells (human, UniProt Q96RD9 16-977).
T3 construct: also called 3T3-FcRL5
T3 sequence: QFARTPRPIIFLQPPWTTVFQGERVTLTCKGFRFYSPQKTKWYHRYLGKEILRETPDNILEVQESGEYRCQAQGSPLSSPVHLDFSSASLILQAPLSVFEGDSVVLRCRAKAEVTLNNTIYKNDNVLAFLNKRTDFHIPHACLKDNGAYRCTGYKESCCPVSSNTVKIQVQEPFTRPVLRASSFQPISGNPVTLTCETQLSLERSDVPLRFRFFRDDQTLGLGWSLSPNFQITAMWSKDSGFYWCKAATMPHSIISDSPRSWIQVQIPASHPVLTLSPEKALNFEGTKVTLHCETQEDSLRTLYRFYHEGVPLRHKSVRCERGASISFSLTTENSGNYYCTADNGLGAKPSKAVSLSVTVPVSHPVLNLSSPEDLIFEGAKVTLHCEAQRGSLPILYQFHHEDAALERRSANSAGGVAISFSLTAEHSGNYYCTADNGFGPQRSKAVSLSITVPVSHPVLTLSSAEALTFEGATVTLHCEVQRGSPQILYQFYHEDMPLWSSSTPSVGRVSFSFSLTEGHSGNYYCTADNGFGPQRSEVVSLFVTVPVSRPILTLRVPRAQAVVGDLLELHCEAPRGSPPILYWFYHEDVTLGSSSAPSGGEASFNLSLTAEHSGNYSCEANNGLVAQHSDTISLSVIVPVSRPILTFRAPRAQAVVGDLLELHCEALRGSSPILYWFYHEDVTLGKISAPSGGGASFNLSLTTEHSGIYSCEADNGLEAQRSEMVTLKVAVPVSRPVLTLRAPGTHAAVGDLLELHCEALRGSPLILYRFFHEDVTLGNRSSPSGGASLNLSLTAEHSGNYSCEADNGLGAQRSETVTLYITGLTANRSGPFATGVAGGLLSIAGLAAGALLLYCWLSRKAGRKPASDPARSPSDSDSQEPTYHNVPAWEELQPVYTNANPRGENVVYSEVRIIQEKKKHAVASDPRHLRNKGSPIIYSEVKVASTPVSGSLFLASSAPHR
Nature of the assay: phage clone screening on cells. Summed up:
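scFv phage clones were incubated with live 3T3 cells overexpressing full-length FcRL5, then detected with mouse anti-M13 mAb and PE-anti-mouse Ig by flow cytometry. 3T3 cells expressing FcRL1, 2, 3, 4 or 6 served as negative-control targets.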

For another assay, the target named is SLAMF9 protein (UniProt Q96A28 19-236, limits assumed). In words: phage clone on SLAMF9 protein.
Assay [4] has as its target T4, FcRL1, overexpressed on 3T3 cells (UniProt Q96LA6 17-429, limits assumed).
T4 construct: whole, on cells
T4 sequence (looked up): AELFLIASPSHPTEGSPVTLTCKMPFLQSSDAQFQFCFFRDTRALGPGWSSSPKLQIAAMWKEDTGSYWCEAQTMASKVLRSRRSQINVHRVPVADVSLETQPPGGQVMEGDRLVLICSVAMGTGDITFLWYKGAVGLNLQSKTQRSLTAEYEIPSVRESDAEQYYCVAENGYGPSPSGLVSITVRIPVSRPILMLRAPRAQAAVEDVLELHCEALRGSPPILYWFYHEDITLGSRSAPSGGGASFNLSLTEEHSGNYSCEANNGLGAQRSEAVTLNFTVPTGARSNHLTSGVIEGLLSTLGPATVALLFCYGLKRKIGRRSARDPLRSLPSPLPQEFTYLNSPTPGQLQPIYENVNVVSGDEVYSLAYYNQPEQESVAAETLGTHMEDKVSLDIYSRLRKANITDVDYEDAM
Nature of the assay: phage clone on 3T3-FcRL1 cells.

Sequence of SLAMF9 protein (Q96A28 19-236 limits assumed): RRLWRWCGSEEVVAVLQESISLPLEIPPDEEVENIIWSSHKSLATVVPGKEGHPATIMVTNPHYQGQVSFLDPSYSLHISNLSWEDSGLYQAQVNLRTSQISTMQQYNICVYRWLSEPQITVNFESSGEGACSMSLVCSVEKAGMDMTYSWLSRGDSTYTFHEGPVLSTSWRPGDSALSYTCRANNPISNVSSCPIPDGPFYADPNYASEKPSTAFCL

B1: ET200-003 (scFv)
scFv: QSVLTQPPSVSVSPGQTASISCSGNKLGTKYVYWYQKRPGQSPVLVMYEDNQRPSGIPERFSGSNSGNTATLTIRGTQTVDEADYYCQAWDSDTFVVFGGGTKVTVLGSRGGGGSGGGGSGGGGSLEMAEVQLVETGGGVVQPGRSLRLSCAASGFTFSSYGMHWVRQAPGKGLEWVAVISHDGSNKYYADSVKGRFTISRDNSKDTLYLQMNSLRGEDTAVYYCARSNQWSGYFSFDYWGQGTLVTVSSTSGQAGQHHHHHHGAYPYDVPDYAS
notes: screened as phage clone; entry is VL-linker-VH-His tag-HA tag
Turning to B1, the binding result is reported as “no binding” in assay [1]; “no binding” in assay [2]; “binds” in assay [3]; “no binding” in the assay with SLAMF9 protein; “no binding” in assay [4].

B2: ET200-044 (scFv)
scFv: QSVLTQPPSVSVSPGQTATIACSGHKLGDKYASWYQQKSGQSPVLIIYQDNKRPSGIPERFSGSNSGNTATLTISGTQALDEADYYCQAWDSSTYVAFGGGTKLTVLGSRGGGGSGGGGSGGGGSLEMAQVQLQESGPGLVKPSETLSLTCVVSGGSISSSNWWSWVRQPPGKGLEWIGEIYHSGSPNYNPSLKSRVTISVDKSKNQFSLKLSSVTAADTAVYYCARMTTHTFGYDAWGQGTLVTVSSTSGQAGQHHHHHHGAYPYDVPDYAS
notes: as for B1
On to B2, for which the binding result was “no binding” in assay [1]; “no binding” in assay [2]; “binds” in assay [3]; “no binding” in the assay with SLAMF9 protein; “no binding” in assay [4].

B3: ET200-045 (scFv)
scFv: QPVLTQPPSVSVAPGKTATITCGGNNIGSESVHWYHQKPGQAPVLVIYDDAGRPSGIPERFTGSNSGNTATLTISRVEAGDEADYYCQVWDRNSAQFVFGPGTKVTVLGSRGGGGSGGGGSGGGGSLEMAEVQLVQSGAEVKKPGASVKVSCKASGYTFTSYGISWVRQAPGQGLEWMGWISAYNGNTNYAQKLQGRVTMTTDTSTSTAYMELRSLRSDDTAVYYCARGVHLDWWGQGTLVTVSSTSGQAGQHHHHHHGAYPYDVPDYAS
notes: as for B1
Regarding B3, the binding result in assay [1] is on record as “no binding”; in assay [2], “no binding”; in assay [3] it was “binds”; in the assay with SLAMF9 protein it was “no binding”; in assay [4], “no binding”.

B4: ET200-081 (scFv)
scFv: QSALTQPASVSGSPGQSITISCTGTSSDIGGYNYVSWYQQHPGKAPKLMIYDVSNRPSGVSNRFSGSKSGNTASLTISGLQAEDEADYYCISYTRTWNPYVFGSGTKVTVLGSRGGGGSGGGGSGGGGSLEMAEVQLVQSGGGVVQPGGSLRLSCAASGFTFDDYAMHWVRQAPGKGLEWVSLISGDGGSTYYADSVKGRFTISRDNSKNSLYLQMNSLRTEDTALYYCAKDRAAAGYYYYGMDVWGQGTTVTVSSTSGQAGQHHHHHHGAYPYDVPDYAS
notes: as for B1
B4: the binding result is on record as “no binding” in assay [1]; “no binding” in assay [2]; “binds” in assay [3]; “no binding” with SLAMF9 protein; “no binding” in assay [4].

B5: ET200-069 (scFv)
scFv: QSVVTQPPSASGTPGQRVTISCSGSSSNIGSNYVYWYQQLPGTAPKLLIYSNNQRPSGVPDRFSGSKSGTSASLAISGLRSEDEADYYCAAWDDSLSGYVFGTGTKLTVLGSRGGGGSGGGGSGGGGSLEMAQVQLQQWGAGLLKPSETLSLTCAVYGGSFSGYYWSWIRQPPGKGLEWIGEINHSGSTNYNPSLKSRVTISVDTSKNQFSLKLSSVTAADTAVYYCARLYEGGYHGWGSWLSSDSWGQGTLVTVSSTSGQAGQHHHHHHGAYPYDVPDYAS
notes: screened as phage clone; entry is VL-linker-VH-His tag-HA tag; also called ET200-69
Take B5: the binding result in assay [1] is on record as “no binding”; in assay [2], “no binding”; in assay [3], “binds”; with SLAMF9 protein it was “no binding”; in assay [4], “no binding”.

B6: ET200-042 (scFv)
scFv: QSVVTQPPSVSGAPGQTVTISCTGGSSNIGTGYFVNWYQQVPGKAPKLLILGNNNRPSGVPDRLSGSTSGTSASLAITGLQAEDEGTYYCQSYDSSLSGYVFGTGTKVTVLGSRGGGGSGGGGSGGGGSLEMAQVQLQQSGPGLVKPSQTLSLTCGISGDSVSTNSVAWHWIRQSPSRGLEWLGRTYYRSKWSNDYGVSVKSRITIIPDTSKNQFSLQLNSVTPEDTAVYYCARSSSWYQIFDYWGQGTLVTVSSTSGQAGQHHHHHHGAYPYDVPDYAS
notes: as for B1
For the molecule B6, the binding result is “no binding” in assay [1]; “no binding” in assay [2]; “binds” in assay [3]; “no binding” with SLAMF9 protein; “no binding” in assay [4].

B7: ET200-079 (scFv)
scFv: SYELTQPPSASGTPGQRVTISCSGSSSNIGSNYVYWYQQLPGTAPKLFIYRNNQRPSGVPDRFSGSKSGTSASLAISGLRSEDEADYYCAAWDDSLSGYLFGTGTKVTVLGSRGGGGSGGGGSGGGGSLEMAEVQLVESGGGLVQPGRSLRLSCAASGFTFDDYAMHWVRQAPGKGLEWVSGISWNSGSIGYADSVKGRFTISRDNAKNSLYLQMNSLRAEDTALYYCANGDSNYYYGMDVWGQGTTVTVSSTSGQAGQHHHHHHGAYPYDVPDYAS
notes: as for B1
Turning to B7, the binding result in assay [1] was “no binding”; in assay [2] it was “no binding”; in assay [3], “binds”; with SLAMF9 protein it was “no binding”; in assay [4] it was “no binding”.

The record behind these values is US20210388081A1 (Memorial Sloan Kettering, published 2021).
